Reference: paper PMC11784022, “An unusual activity of mycobacterial MutT1 Nudix hydrolase domain as a protein phosphatase regulates nucleoside diphosphate kinase function” (Journal of Bacteriology, 2024)

Target: the molecule itself
Experiment: SDS-PAGE of samples not heated in sample buffer; MsmNDK-Pi (1 µg) in kinase buffer (50 mM Tris-HCl pH 8.0, 50 mM KCl, 10 mM MgCl2), 30°C, mixed with SDS-PAGE sample buffer without heating, 12% SDS-PAGE, Coomassie stain

B1: Mycobacterium smegmatis nucleoside diphosphate kinase (MsmNDK) (enzyme, Mycobacterium smegmatis mc2155, UniProt O85501 1-139, looked up)
chain: MTERTLVLIKPDGVKRQLVGEILSRIERKGLTLAALELKNVSDDLARQHYAEHADKPFFGSLLEFITSGPLVAAIVEGPRAVAAFRQIAGGTDPVEKAVPGTIRGDFALITQDNLVHGSDSPESAAREIALWFPGEATA
notes: Nucleoside diphosphate kinase of Mycobacterium smegmatis mc2155, locus MSMEG_4627; ORF amplified from genomic DNA and cloned into pProEx-Htb between NcoI and HindIII; also called MsmNDK-Pi; source: E. coli M15, purified (Ni-NTA, Superdex-75)
binding result: binds
